Laboratory results taken from patent publication US20100239570A1.

Experiments:
[1] = biological target: synthetic monomeric Abeta1-40 peptide (UniProt P05067); test: ELISA, peptide coated, antibody titrated
[2] = biological target: synthetic monomeric Abeta1-42 peptide (UniProt P05067); test: ELISA, peptide coated, antibody titrated
Abeta1-42 fibrils = Abeta1-42 fibrils (UniProt P05067); test: ELISA, fibrils coated, antibody titrated

EC50 [1]: 0.04 nM | EC50 [2]: 0.061 nM | EC50 (Abeta1-42 fibrils): 0.07 nM
B1: antibody NI-103 (antibody, V domains shown)
VH: EVQLHQSGPELVKPGASVKISCKTSGYTFTEYTMHWVKQSHGKSLEWIGGVNPYNDNTSYIRKLQGKVTLTVDRSSSTAYMELRSLTSEDSAVYFCARYGGLRPYYFPMDFWGQGTSVTVSS
VL: QVVLSQSPAILSASPGERVTLTCRASSSVNYMHWYQQKPGSSPKAWIYATSNLASGVPDRFSASGSGTSYSLTISRVEAEDAATYYCQQWRTNPPTFGAGTKLELKR
